Laboratory results from paper PMC6192543 (Journal of the American Chemical Society, 2018).

Target: human A2A adenosine receptor variant A2AAR[K233W] (human, UniProt P29274 1-316, N154Q | K233W, uniformly 15N-labelled, ~70% 2H)
Test: NMR titration

Sequence of human A2A adenosine receptor variant A2AAR[K233W] (P29274 1-316 N154Q/K233W): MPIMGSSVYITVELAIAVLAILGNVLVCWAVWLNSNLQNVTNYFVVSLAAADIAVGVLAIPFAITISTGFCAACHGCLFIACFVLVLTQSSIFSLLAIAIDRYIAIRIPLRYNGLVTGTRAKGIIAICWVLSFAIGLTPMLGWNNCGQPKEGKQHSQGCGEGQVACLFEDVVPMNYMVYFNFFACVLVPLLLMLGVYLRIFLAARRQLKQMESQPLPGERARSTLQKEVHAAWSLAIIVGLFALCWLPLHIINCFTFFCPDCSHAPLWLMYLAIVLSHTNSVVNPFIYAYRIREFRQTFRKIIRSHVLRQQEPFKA

B1: C-terminal polypeptide GαS(374–394)[C379A] (peptide, UniProt P63092 374-394, looked up)
peptide: RVFNDARDIIQRMHLRQYELL
binding result: binds
